The test system of the series is Escherichia coli TOP10. Briefly: shrunken log2 fold change of peptide-encoding DNA abundance (4.5 h post-induction vs induction); higher = less antimicrobial activity (less host growth inhibition). Conditions: time post-induction: 4.5 h; library: site-saturation at positions 5, 18, 19, 20.
In the case of RRIRNRPPRLPRPRPRPIHTPRP, the “shrunken log2 fold change” value was -0.0125.

RRIRQRPPRLPRPRPRPYGKPRP: the “shrunken log2 fold change” value was -0.217. Take RRIRLRPPRLPRPRPRPHYAPRP: the “shrunken log2 fold change” value is -0.133.

RRIRLRPPRLPRPRPRPMTRPRP: the “shrunken log2 fold change” value stood at 0.314.

On to RRIRHRPPRLPRPRPRPSCEPRP, for which the “shrunken log2 fold change” value is -0.569. Turning to RRIRFRPPRLPRPRPRPTESPRP, the “shrunken log2 fold change” value was -0.154. Under RRIRDRPPRLPRPRPRPHQGPRP stands -0.00184; under RRIRTRPPRLPRPRPRPQMKPRP, -0.449.

For the sequence RRIRWRPPRLPRPRPRPQEFPRP, the “shrunken log2 fold change” value worked out at 0.00161. RRIRRRPPRLPRPRPRPVNIPRP: the “shrunken log2 fold change” value was -0.142. Under RRIRQRPPRLPRPRPRPWNHPRP stands -0.0081; under RRIRMRPPRLPRPRPRPAWSPRP, 0.44. As for RRIRDRPPRLPRPRPRPGNMPRP, the “shrunken log2 fold change” value is -0.164. Under RRIRQRPPRLPRPRPRPMAPPRP stands 0.0505; under RRIRGRPPRLPRPRPRPKKFPRP, 0.582; under RRIRWRPPRLPRPRPRPRITPRP, 0.00862. On to RRIRERPPRLPRPRPRPCYTPRP, for which the “shrunken log2 fold change” value was -0.0917. Take RRIRSRPPRLPRPRPRPVGEPRP: the “shrunken log2 fold change” value stood at 0.332. Consider RRIRMRPPRLPRPRPRPEVGPRP, for which the “shrunken log2 fold change” value was determined as 2.56. The result for RRIRVRPPRLPRPRPRPMQYPRP reads -0.324; that for RRIRNRPPRLPRPRPRPKYCPRP, -0.225; that for RRIRTRPPRLPRPRPRPTVDPRP, -0.126. For the sequence RRIRERPPRLPRPRPRPSETPRP, the “shrunken log2 fold change” value was -0.428. The result for RRIRCRPPRLPRPRPRPKHNPRP reads -0.325. The result for RRIRFRPPRLPRPRPRPPKYPRP reads -0.0263; that for RRIRARPPRLPRPRPRPWNFPRP, -0.123; that for RRIRNRPPRLPRPRPRPDYAPRP, -0.0367. The result for RRIRGRPPRLPRPRPRPWTQPRP reads 0.236. Take RRIRERPPRLPRPRPRPGYQPRP: the “shrunken log2 fold change” value was -0.00905.

Regarding RRIRPRPPRLPRPRPRPMYMPRP, the “shrunken log2 fold change” value was -0.0346.

Consider RRIRHRPPRLPRPRPRPAHYPRP, for which the “shrunken log2 fold change” value was -0.139.

RRIRNRPPRLPRPRPRPFEQPRP: the “shrunken log2 fold change” value was -0.0506. The result for RRIRPRPPRLPRPRPRPAMMPRP reads -0.214; that for RRIRSRPPRLPRPRPRPWSVPRP, -0.305; that for RRIRGRPPRLPRPRPRPEYFPRP, 0.11. For the sequence RRIRWRPPRLPRPRPRPPIPPRP, the “shrunken log2 fold change” value was determined as 0.0875.

Take RRIRNRPPRLPRPRPRPPDMPRP: the “shrunken log2 fold change” value amounted to 0.0955. Under RRIRIRPPRLPRPRPRPTSWPRP stands 0.0769; under RRIRERPPRLPRPRPRPCPHPRP, -0.105. As for RRIRFRPPRLPRPRPRPFGVPRP, the “shrunken log2 fold change” value is -0.166. The result for RRIRARPPRLPRPRPRPFADPRP reads 0.438; that for RRIRKRPPRLPRPRPRPDSMPRP, 0.0692. Regarding RRIRCRPPRLPRPRPRPKWFPRP, the “shrunken log2 fold change” value came to 0.0996. For RRIRVRPPRLPRPRPRPTFMPRP, the “shrunken log2 fold change” value was -0.0669.

RRIRIRPPRLPRPRPRPYTLPRP: the “shrunken log2 fold change” value was -0.478. On to RRIRPRPPRLPRPRPRPMPHPRP, for which the “shrunken log2 fold change” value was -0.169. Under RRIRDRPPRLPRPRPRPNADPRP stands 0.018; under RRIRERPPRLPRPRPRPQRNPRP, -0.214. For RRIRCRPPRLPRPRPRPGQFPRP, the “shrunken log2 fold change” value is -0.564. As for RRIRKRPPRLPRPRPRPINVPRP, the “shrunken log2 fold change” value came to 0.095. Under RRIRNRPPRLPRPRPRPGNKPRP stands -0.408; under RRIRWRPPRLPRPRPRPAGGPRP, 0.379; under RRIRCRPPRLPRPRPRPQSTPRP, -0.673. The result for RRIRDRPPRLPRPRPRPSNRPRP reads -0.052; that for RRIRYRPPRLPRPRPRPGQTPRP, -0.0773; that for RRIRRRPPRLPRPRPRPWKYPRP, -0.478. Under RRIRGRPPRLPRPRPRPRIQPRP stands 0.337; under RRIRSRPPRLPRPRPRPVSLPRP, -0.122; under RRIRRRPPRLPRPRPRPHVVPRP, 0.0538.

With RRIRDRPPRLPRPRPRPIITPRP, the “shrunken log2 fold change” value was -0.0771. As for RRIRHRPPRLPRPRPRPTRAPRP, the “shrunken log2 fold change” value is 0.348.

RRIRERPPRLPRPRPRPHFKPRP: the “shrunken log2 fold change” value is -0.342.

In the case of RRIRKRPPRLPRPRPRPRASPRP, the “shrunken log2 fold change” value worked out at 0.675. The result for RRIRWRPPRLPRPRPRPGMQPRP reads 0.775. Under RRIRQRPPRLPRPRPRPHWYPRP stands -0.0983; under RRIRERPPRLPRPRPRPFEDPRP, -0.0547. As for RRIRKRPPRLPRPRPRPLMRPRP, the “shrunken log2 fold change” value is 1.35. The result for RRIRHRPPRLPRPRPRPKPGPRP reads 0.21; that for RRIRVRPPRLPRPRPRPRRAPRP, 0.751. As for RRIRIRPPRLPRPRPRPPTFPRP, the “shrunken log2 fold change” value was -0.166. With RRIRARPPRLPRPRPRPEHHPRP, the “shrunken log2 fold change” value worked out at 0.132.

As to RRIRHRPPRLPRPRPRPRMPPRP, the “shrunken log2 fold change” value is 0.133. In the case of RRIRTRPPRLPRPRPRPIADPRP, the “shrunken log2 fold change” value was -0.0123. The result for RRIRWRPPRLPRPRPRPGYSPRP reads -0.191. The result for RRIRLRPPRLPRPRPRPCASPRP reads 0.259. For the sequence RRIRMRPPRLPRPRPRPDGIPRP, the “shrunken log2 fold change” value is 1.33.

In the case of RRIRLRPPRLPRPRPRPGMPPRP, the “shrunken log2 fold change” value is -0.15.

Turning to RRIRGRPPRLPRPRPRPWMIPRP, the “shrunken log2 fold change” value came to 0.268. The result for RRIRTRPPRLPRPRPRPFPMPRP reads -0.596. Under RRIRYRPPRLPRPRPRPWYQPRP stands -3.18; under RRIRVRPPRLPRPRPRPIYHPRP, -0.461; under RRIRSRPPRLPRPRPRPWKEPRP, -0.0075. Take RRIRGRPPRLPRPRPRPLPKPRP: the “shrunken log2 fold change” value is 0.943. The result for RRIRTRPPRLPRPRPRPPCNPRP reads -0.0091; that for RRIRTRPPRLPRPRPRPMYMPRP, -0.0921. RRIRKRPPRLPRPRPRPPDMPRP: the “shrunken log2 fold change” value was 0.469. Under RRIRGRPPRLPRPRPRPHPVPRP stands 0.412; under RRIRSRPPRLPRPRPRPRKMPRP, 0.207; under RRIRNRPPRLPRPRPRPFFGPRP, 0.239. The result for RRIRNRPPRLPRPRPRPECSPRP reads 0.079. Under RRIRGRPPRLPRPRPRPTFYPRP stands 0.264.

The record behind these values is the supplement of paper PMC9112550, “Optimization of the antimicrobial peptide Bac7 by deep mutational scanning” (BMC Biology, 2022).
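Also: peptides expressed intracellularly from a pBAD plasmid library in pooled LB shake-flask culture, induced with 0.3% L-arabinose, DNA abundance read by NGS, three biological replicates, DESeq2 with apeglm shrinkage.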
